# Assay results taken from the supplement of paper PMC9112550, “Optimization of the antimicrobial peptide Bac7 by deep mutational scanning” (BMC Biology, 2022).
# System: Escherichia coli TOP10
# Assay: shrunken log2 fold change of peptide-encoding DNA abundance (4.5 h post-induction vs induction); higher = less antimicrobial activity (less host growth inhibition)
# Conditions: time post-induction: 4.5 h; library: site-saturation at positions 5, 18, 19, 20
# 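Further: peptides expressed intracellularly from a pBAD plasmid library in pooled LB shake-flask culture, induced with 0.3% L-arabinose, DNA abundance read by NGS, three biological replicates, DESeq2 with apeglm shrinkage.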
row,Sequence,shrunken log2 fold change
1,RRIRVRPPRLPRPRPRPCQRPRP,0.0972
2,RRIRSRPPRLPRPRPRPDWQPRP,-0.162
3,RRIRWRPPRLPRPRPRPSACPRP,0.382
4,RRIRARPPRLPRPRPRPYSLPRP,-0.187
5,RRIRTRPPRLPRPRPRPCYAPRP,-0.215
6,RRIRWRPPRLPRPRPRPFDPPRP,0.0827
7,RRIRRRPPRLPRPRPRPMAYPRP,-0.193
8,RRIRNRPPRLPRPRPRPTSVPRP,0.184
9,RRIRWRPPRLPRPRPRPFFMPRP,-0.108
10,RRIRGRPPRLPRPRPRPNELPRP,0.552
11,RRIRCRPPRLPRPRPRPTKIPRP,0.0473
12,RRIRTRPPRLPRPRPRPEGSPRP,0.161
13,RRIRLRPPRLPRPRPRPPTRPRP,0.677
14,RRIRYRPPRLPRPRPRPIIVPRP,-0.249
15,RRIRPRPPRLPRPRPRPQMAPRP,0.129
16,RRIRMRPPRLPRPRPRPMGTPRP,0.301
17,RRIRLRPPRLPRPRPRPLTQPRP,0.343
18,RRIRGRPPRLPRPRPRPIDMPRP,-0.0207
19,RRIRPRPPRLPRPRPRPKNIPRP,-0.719
20,RRIRRRPPRLPRPRPRPHYKPRP,-0.487
21,RRIRRRPPRLPRPRPRPFCHPRP,-0.17
22,RRIRCRPPRLPRPRPRPDVHPRP,-0.241
23,RRIRKRPPRLPRPRPRPCHAPRP,0.384
24,RRIRARPPRLPRPRPRPWETPRP,4.22
25,RRIRVRPPRLPRPRPRPTAKPRP,0.0848

row,Sequence,shrunken log2 fold change
1,RRIRFRPPRLPRPRPRPETYPRP,-0.0354
2,RRIRTRPPRLPRPRPRPWGSPRP,0.0639
3,RRIRYRPPRLPRPRPRPQDRPRP,-0.00674
4,RRIRMRPPRLPRPRPRPHMDPRP,-0.604
5,RRIRVRPPRLPRPRPRPQEDPRP,-0.467
6,RRIRLRPPRLPRPRPRPTSNPRP,-0.576
7,RRIRQRPPRLPRPRPRPTWQPRP,0.186
8,RRIRGRPPRLPRPRPRPVQKPRP,0.434
9,RRIRYRPPRLPRPRPRPHVKPRP,-0.00472
10,RRIRYRPPRLPRPRPRPYFDPRP,-0.27
11,RRIRERPPRLPRPRPRPYWAPRP,-0.888
12,RRIRIRPPRLPRPRPRPRQTPRP,-0.0527
13,RRIRIRPPRLPRPRPRPEERPRP,0.0136
14,RRIRFRPPRLPRPRPRPSNCPRP,-0.529
15,RRIRFRPPRLPRPRPRPNHGPRP,-0.4
16,RRIRTRPPRLPRPRPRPHMIPRP,-0.138
17,RRIRGRPPRLPRPRPRPDPMPRP,0.743
18,RRIRRRPPRLPRPRPRPFNLPRP,-0.109
19,RRIRIRPPRLPRPRPRPYGMPRP,-0.354
20,RRIRIRPPRLPRPRPRPPPQPRP,0.52
21,RRIRTRPPRLPRPRPRPCFNPRP,-0.667
22,RRIRQRPPRLPRPRPRPHPRPRP,0.575
23,RRIRERPPRLPRPRPRPRVVPRP,0.069
24,RRIRKRPPRLPRPRPRPLDCPRP,-0.0764
25,RRIRKRPPRLPRPRPRPCMLPRP,-0.245

row,Sequence,shrunken log2 fold change
1,RRIRQRPPRLPRPRPRPNRKPRP,-0.141
2,RRIRMRPPRLPRPRPRPETGPRP,0.321
3,RRIRVRPPRLPRPRPRPNMSPRP,-0.537
4,RRIRGRPPRLPRPRPRPEKEPRP,0.0374
5,RRIRERPPRLPRPRPRPMEWPRP,0.0338
6,RRIRWRPPRLPRPRPRPHVPPRP,-0.161
7,RRIRERPPRLPRPRPRPDPWPRP,-0.12
8,RRIRARPPRLPRPRPRPNLTPRP,0.287
9,RRIRCRPPRLPRPRPRPFAEPRP,-0.0347
10,RRIRIRPPRLPRPRPRPMVCPRP,-0.0245
11,RRIRDRPPRLPRPRPRPSQNPRP,0.113
12,RRIRRRPPRLPRPRPRPQSTPRP,-0.095
13,RRIRQRPPRLPRPRPRPGKDPRP,-0.115
14,RRIRGRPPRLPRPRPRPGGMPRP,0.662
15,RRIRQRPPRLPRPRPRPFICPRP,-0.0129
16,RRIRKRPPRLPRPRPRPITAPRP,0.235
17,RRIRMRPPRLPRPRPRPTGVPRP,0.224
18,RRIRDRPPRLPRPRPRPFSRPRP,-0.164
19,RRIRVRPPRLPRPRPRPVWWPRP,-0.0476
20,RRIRHRPPRLPRPRPRPKPVPRP,0.239
21,RRIRPRPPRLPRPRPRPFASPRP,0.132
22,RRIRHRPPRLPRPRPRPICKPRP,-0.204
23,RRIRLRPPRLPRPRPRPPPTPRP,1.48
24,RRIRYRPPRLPRPRPRPMRWPRP,0.448
25,RRIRMRPPRLPRPRPRPWVFPRP,0.152

row,Sequence,shrunken log2 fold change
1,RRIRCRPPRLPRPRPRPHHKPRP,-0.857
2,RRIRKRPPRLPRPRPRPKWVPRP,0.339
3,RRIRIRPPRLPRPRPRPGLQPRP,0.0696
4,RRIRKRPPRLPRPRPRPSKNPRP,0.219
5,RRIRMRPPRLPRPRPRPRGNPRP,0.37
6,RRIRKRPPRLPRPRPRPAYVPRP,0.108
7,RRIRWRPPRLPRPRPRPTGRPRP,0.536
8,RRIRARPPRLPRPRPRPAKQPRP,-0.197
9,RRIRFRPPRLPRPRPRPKIIPRP,-0.592
10,RRIRWRPPRLPRPRPRPLVPPRP,-0.000952
11,RRIRYRPPRLPRPRPRPGKYPRP,-0.466
12,RRIRVRPPRLPRPRPRPPVWPRP,0.312
13,RRIRVRPPRLPRPRPRPQDWPRP,-0.132
14,RRIRFRPPRLPRPRPRPSFSPRP,-0.702
15,RRIRIRPPRLPRPRPRPHIDPRP,-0.0031
16,RRIRPRPPRLPRPRPRPKRAPRP,0.395
17,RRIRPRPPRLPRPRPRPENVPRP,-0.2
18,RRIRTRPPRLPRPRPRPIHCPRP,-0.172
19,RRIRMRPPRLPRPRPRPAHNPRP,0.421
20,RRIRYRPPRLPRPRPRPFTTPRP,0.0402
21,RRIRSRPPRLPRPRPRPYCKPRP,-0.327
22,RRIRVRPPRLPRPRPRPPRMPRP,0.167
23,RRIRFRPPRLPRPRPRPMWYPRP,-0.0081
24,RRIRMRPPRLPRPRPRPDCRPRP,0.134
25,RRIRQRPPRLPRPRPRPPYSPRP,-0.224

row,Sequence,shrunken log2 fold change
1,RRIRYRPPRLPRPRPRPPKSPRP,-0.0324
2,RRIRDRPPRLPRPRPRPQYCPRP,-0.207
3,RRIRLRPPRLPRPRPRPFWFPRP,0.0715
4,RRIRERPPRLPRPRPRPYMNPRP,-0.602
5,RRIRARPPRLPRPRPRPLHYPRP,-0.174
6,RRIRMRPPRLPRPRPRPMRAPRP,2.56
7,RRIRCRPPRLPRPRPRPSDHPRP,-0.714
8,RRIRQRPPRLPRPRPRPWMRPRP,0.131
9,RRIRARPPRLPRPRPRPWPKPRP,0.508
10,RRIRGRPPRLPRPRPRPHNMPRP,-0.285
11,RRIRCRPPRLPRPRPRPNWWPRP,0.32
12,RRIRLRPPRLPRPRPRPGPYPRP,-0.215
13,RRIRIRPPRLPRPRPRPNEGPRP,-0.45
14,RRIRVRPPRLPRPRPRPSEWPRP,-0.0811
15,RRIRARPPRLPRPRPRPDGGPRP,0.432
16,RRIRPRPPRLPRPRPRPFTKPRP,-0.148
17,RRIRIRPPRLPRPRPRPIDLPRP,-0.179
18,RRIRPRPPRLPRPRPRPHACPRP,0.00839
19,RRIRTRPPRLPRPRPRPGCVPRP,0.0396
20,RRIRIRPPRLPRPRPRPLFWPRP,-0.145
21,RRIRTRPPRLPRPRPRPCMKPRP,-0.332
22,RRIRCRPPRLPRPRPRPMCNPRP,-0.378
23,RRIRTRPPRLPRPRPRPATMPRP,-0.0723
24,RRIRQRPPRLPRPRPRPYKYPRP,-1.49
25,RRIRNRPPRLPRPRPRPAKRPRP,0.27

row,Sequence,shrunken log2 fold change
1,RRIRTRPPRLPRPRPRPETQPRP,0.205
2,RRIRCRPPRLPRPRPRPSYPPRP,-0.703
3,RRIRMRPPRLPRPRPRPVGKPRP,0.216
4,RRIRNRPPRLPRPRPRPSPWPRP,0.0438
5,RRIRERPPRLPRPRPRPYQHPRP,-0.106
6,RRIRYRPPRLPRPRPRPVWVPRP,0.127
7,RRIRMRPPRLPRPRPRPVQMPRP,0.247
8,RRIRDRPPRLPRPRPRPSNTPRP,-0.75
9,RRIRSRPPRLPRPRPRPLINPRP,-0.0856
10,RRIRERPPRLPRPRPRPCRAPRP,-0.0474
11,RRIRERPPRLPRPRPRPMENPRP,-0.104
12,RRIRTRPPRLPRPRPRPSIDPRP,-0.397
13,RRIRCRPPRLPRPRPRPKDNPRP,-0.273
14,RRIRGRPPRLPRPRPRPLDLPRP,0.717
15,RRIRCRPPRLPRPRPRPTWWPRP,0.294
16,RRIRQRPPRLPRPRPRPLWPPRP,0.227
17,RRIRSRPPRLPRPRPRPQGHPRP,0.00442
18,RRIRQRPPRLPRPRPRPWYTPRP,-0.132
19,RRIRARPPRLPRPRPRPTEHPRP,0.46
20,RRIRWRPPRLPRPRPRPFPHPRP,0.29
21,RRIRVRPPRLPRPRPRPMHMPRP,-0.164
22,RRIRYRPPRLPRPRPRPIDWPRP,0.0205
23,RRIRYRPPRLPRPRPRPVYLPRP,0.00668
24,RRIRPRPPRLPRPRPRPFHNPRP,-0.541
25,RRIRVRPPRLPRPRPRPEIEPRP,0.173
